Test results: patent publication US20070099283A1 (published 2007)

Target: T1, mature recombinant proteinase K from Tritirachium album Limber (processed, natured from pro-proteinase K) (Tritirachium album Limber, UniProt P06873 106-384)
T1 construct: Made in E. coli as pro-proteinase K inclusion bodies, natured in vitro and cleaved autocatalytically; also called processed recombinant proteinase K; native proteinase K
Assay: chromatographic methods and SDS-PAGE of natured pro-proteinase K

T1 sequence (P06873 106-384): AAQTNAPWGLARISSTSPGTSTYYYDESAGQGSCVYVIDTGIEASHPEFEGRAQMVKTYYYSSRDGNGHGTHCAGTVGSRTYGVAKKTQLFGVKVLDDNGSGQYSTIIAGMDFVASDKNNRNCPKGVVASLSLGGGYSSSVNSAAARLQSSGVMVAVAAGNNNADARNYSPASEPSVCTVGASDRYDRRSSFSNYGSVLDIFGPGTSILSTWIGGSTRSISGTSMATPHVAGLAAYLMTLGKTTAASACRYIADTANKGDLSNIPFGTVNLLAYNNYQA

binding result: binds
B1: propeptide (prosequence) of proteinase K from Tritirachium album Limber (peptide)
chain: APAVEQRSEAAPLIEARGEMVANKYIVKFKEGSALSALDAAMEKISGKPDHVYKNVFSGFAATLDENMVRVLRAHPDVEYIEQDAVVTIN
